The target of this test is LCMV clone 13 nucleocapsid protein (NP), purified recombinant (Lymphocytic choriomeningitis virus, …, UniProt P09992, strain). Description: ELISA. In general terms: ELISA stands for enzyme-linked immunosorbent assay.

B1: most expanded antibody variant of the NP-specific, second most expanded IgG clone (antibody, V domains shown)
VH: EVQLQQSGPELVKPGASVKMSCKASGYTFTDYNMHWVKQSHGKSLEWIGYINPNNGGTSYNQKFKGKATLTVNKSSSTAYMELRSLTSEDSAVYYCAREGGYWYFDVWGTGTTVTVSS
VL: DIVMTQSHKFMSTSVGDRVSITCKASQDVSTAVAWYQQKPGQSPKLLIYWASTRHTGVPDRFTGSGSGTDYTLTISSVQAEDLALYYCQQHYSTPFTFGSGTKLEIK
Turning to B1, the binding result is “binds”.

These data come from paper doi:10.1101/2021.01.29.428852 (bioRxiv, 2021).
